Assay results as given in the supplement of paper PMC10065799, “High-throughput profiling of sequence recognition by tyrosine kinases and SH2 domains using bacterial peptide display” (eLife, 2023).

Experiments:
Jak2 = Jak2 (UniProt O60674); assay: phosphorylation enrichment, bacterial display (enrichment ratio); higher = better substrate or ligand; peptides without Tyr show the background
Fyn = Fyn (UniProt P06241); assay: as above
c-Src = assay: as above
MERTK = MERTK (UniProt Q12866); assay: as above
Fes = Fes (UniProt P07332); assay: as above
EPHB1 = EPHB1 (UniProt P54762); assay: as above
Fer (mouse) = assay: as above
FGFR1 = FGFR1 (UniProt P11362); assay: as above
FGFR3 = FGFR3 (UniProt P22607); assay: as above
c-Abl (mouse) = assay: as above
AncSZ = assay: as above
Hck = Hck (UniProt P08631); assay: as above
EPHB2 = EPHB2 (UniProt P29323); assay: as above
Grb2 SH2 = Grb2 SH2 (UniProt P62993); assay: SH2 binding enrichment of the phosphorylated peptide, bacterial display (enrichment ratio); higher = better substrate or ligand; peptides without Tyr show the background
SHP2-C SH2 = assay: as above
c-Src SH2 = assay: as above
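Wherever SH2 binding enrichment of the phosphorylated peptide, bacterial display is given: peptide library displayed on the E. coli surface as eCPX fusions, selected cells deep-sequenced, score is each peptide's frequency after selection divided by its frequency in the input.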
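Wherever phosphorylation enrichment, bacterial display is given: 11-residue human phosphosite peptides and single-mutation variants displayed on the E. coli surface, counted by deep sequencing, each peptide's frequency after selection divided by its frequency in the unselected input library; frequency after pTyr selection over input frequency; kinase dosed for 20-30% of maximal phosphorylation in three min.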

EPHB2, sequence (P29323 whole entry, looked up): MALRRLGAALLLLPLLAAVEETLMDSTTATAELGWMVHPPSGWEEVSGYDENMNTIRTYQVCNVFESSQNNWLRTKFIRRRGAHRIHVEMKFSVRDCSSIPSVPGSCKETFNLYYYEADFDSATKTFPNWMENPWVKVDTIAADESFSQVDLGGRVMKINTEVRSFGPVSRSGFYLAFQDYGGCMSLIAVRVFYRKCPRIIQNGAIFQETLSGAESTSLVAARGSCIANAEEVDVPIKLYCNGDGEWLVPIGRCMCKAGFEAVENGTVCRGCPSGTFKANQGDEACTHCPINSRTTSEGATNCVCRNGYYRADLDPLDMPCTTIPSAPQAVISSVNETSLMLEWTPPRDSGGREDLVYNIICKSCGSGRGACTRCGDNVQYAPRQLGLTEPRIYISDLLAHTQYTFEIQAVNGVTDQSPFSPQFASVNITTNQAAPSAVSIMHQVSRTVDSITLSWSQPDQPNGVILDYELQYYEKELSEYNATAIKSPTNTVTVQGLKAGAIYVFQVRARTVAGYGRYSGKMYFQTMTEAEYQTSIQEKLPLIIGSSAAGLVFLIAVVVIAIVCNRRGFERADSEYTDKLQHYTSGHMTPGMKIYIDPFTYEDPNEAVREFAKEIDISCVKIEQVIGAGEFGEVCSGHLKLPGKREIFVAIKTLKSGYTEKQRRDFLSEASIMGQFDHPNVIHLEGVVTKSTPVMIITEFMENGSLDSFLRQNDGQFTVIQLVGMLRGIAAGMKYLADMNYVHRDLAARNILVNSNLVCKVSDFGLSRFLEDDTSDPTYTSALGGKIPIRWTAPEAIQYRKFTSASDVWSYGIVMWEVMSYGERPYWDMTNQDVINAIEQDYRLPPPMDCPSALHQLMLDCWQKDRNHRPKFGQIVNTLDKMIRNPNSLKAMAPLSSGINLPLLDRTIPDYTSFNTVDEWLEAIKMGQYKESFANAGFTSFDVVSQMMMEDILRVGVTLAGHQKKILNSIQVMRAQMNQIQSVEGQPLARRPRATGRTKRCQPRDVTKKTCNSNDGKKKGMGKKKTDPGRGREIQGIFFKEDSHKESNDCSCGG
Fes, sequence (P07332 whole entry, looked up): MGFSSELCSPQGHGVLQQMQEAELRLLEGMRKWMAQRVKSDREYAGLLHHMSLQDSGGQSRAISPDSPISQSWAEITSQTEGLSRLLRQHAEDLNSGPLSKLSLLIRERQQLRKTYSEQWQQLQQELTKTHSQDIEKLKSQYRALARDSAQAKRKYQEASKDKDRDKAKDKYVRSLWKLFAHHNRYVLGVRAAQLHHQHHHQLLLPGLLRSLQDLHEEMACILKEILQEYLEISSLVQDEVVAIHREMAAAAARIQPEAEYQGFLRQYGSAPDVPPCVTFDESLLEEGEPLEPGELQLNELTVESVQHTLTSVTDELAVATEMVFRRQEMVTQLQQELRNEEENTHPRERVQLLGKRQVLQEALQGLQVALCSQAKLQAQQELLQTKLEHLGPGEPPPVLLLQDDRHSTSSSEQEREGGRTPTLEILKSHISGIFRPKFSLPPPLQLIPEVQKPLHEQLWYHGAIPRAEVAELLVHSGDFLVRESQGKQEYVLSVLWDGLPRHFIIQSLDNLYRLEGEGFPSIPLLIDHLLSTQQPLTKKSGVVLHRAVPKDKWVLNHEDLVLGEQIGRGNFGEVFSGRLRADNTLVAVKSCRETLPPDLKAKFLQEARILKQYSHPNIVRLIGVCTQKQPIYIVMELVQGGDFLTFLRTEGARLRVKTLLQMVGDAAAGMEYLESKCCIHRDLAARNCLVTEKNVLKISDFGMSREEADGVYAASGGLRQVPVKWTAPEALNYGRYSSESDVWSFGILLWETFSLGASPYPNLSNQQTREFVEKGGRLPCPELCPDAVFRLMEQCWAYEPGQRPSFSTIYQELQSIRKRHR
MERTK, sequence (Q12866 whole entry, looked up): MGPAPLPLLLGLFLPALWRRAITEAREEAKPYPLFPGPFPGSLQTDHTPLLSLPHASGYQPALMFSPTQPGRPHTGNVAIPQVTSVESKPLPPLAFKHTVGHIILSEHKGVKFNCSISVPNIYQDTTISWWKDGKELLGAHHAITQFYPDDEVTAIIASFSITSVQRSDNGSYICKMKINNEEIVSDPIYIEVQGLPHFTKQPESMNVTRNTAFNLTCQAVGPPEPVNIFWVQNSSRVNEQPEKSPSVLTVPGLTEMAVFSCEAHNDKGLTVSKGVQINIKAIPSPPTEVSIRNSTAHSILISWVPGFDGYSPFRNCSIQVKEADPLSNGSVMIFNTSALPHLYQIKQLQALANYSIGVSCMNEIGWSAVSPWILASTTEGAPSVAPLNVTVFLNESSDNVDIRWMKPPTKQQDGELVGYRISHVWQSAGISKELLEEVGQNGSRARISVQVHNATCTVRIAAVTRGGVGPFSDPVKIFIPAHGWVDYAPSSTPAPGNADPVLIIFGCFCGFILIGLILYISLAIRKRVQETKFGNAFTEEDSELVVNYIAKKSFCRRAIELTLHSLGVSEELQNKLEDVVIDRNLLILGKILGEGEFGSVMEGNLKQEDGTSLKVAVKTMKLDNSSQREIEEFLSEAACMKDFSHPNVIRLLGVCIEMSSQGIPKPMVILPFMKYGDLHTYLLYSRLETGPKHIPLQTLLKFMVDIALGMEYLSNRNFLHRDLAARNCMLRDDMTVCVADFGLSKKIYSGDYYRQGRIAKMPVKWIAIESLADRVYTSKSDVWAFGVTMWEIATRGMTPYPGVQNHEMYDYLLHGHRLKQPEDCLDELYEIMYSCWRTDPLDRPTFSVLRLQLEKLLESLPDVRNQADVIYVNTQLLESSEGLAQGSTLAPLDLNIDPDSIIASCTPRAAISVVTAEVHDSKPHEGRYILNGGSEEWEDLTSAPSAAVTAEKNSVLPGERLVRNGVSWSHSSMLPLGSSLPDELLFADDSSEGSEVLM
Jak2, sequence (O60674 whole entry, looked up): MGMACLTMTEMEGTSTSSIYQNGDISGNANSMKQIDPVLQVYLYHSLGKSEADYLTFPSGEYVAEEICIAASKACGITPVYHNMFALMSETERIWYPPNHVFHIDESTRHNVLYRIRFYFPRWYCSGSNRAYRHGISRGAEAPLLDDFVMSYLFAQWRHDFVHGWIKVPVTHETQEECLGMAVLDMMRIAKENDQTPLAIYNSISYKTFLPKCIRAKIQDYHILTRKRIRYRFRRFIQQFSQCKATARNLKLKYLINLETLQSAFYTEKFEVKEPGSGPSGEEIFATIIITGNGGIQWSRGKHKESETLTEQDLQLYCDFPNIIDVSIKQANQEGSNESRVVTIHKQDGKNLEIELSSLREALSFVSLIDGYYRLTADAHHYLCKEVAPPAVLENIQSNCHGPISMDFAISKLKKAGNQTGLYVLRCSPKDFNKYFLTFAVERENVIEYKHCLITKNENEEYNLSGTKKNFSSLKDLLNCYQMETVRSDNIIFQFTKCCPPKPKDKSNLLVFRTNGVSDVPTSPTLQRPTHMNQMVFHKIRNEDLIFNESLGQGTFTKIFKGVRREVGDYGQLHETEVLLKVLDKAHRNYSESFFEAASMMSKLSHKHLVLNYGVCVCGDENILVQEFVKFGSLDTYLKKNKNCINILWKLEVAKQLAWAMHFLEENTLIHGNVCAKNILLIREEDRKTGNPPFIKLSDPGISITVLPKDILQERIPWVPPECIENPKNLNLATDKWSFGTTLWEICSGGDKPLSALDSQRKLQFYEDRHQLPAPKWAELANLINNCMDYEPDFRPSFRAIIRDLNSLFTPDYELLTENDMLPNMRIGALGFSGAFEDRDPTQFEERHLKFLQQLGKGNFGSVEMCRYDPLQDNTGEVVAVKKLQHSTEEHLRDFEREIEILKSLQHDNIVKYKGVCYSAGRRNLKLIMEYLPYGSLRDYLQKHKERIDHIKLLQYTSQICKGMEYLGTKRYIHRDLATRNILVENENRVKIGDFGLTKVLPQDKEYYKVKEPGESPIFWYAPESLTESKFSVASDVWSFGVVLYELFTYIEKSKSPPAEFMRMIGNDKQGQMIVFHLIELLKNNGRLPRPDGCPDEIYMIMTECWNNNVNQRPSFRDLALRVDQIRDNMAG
Hck, sequence (P08631 whole entry, looked up): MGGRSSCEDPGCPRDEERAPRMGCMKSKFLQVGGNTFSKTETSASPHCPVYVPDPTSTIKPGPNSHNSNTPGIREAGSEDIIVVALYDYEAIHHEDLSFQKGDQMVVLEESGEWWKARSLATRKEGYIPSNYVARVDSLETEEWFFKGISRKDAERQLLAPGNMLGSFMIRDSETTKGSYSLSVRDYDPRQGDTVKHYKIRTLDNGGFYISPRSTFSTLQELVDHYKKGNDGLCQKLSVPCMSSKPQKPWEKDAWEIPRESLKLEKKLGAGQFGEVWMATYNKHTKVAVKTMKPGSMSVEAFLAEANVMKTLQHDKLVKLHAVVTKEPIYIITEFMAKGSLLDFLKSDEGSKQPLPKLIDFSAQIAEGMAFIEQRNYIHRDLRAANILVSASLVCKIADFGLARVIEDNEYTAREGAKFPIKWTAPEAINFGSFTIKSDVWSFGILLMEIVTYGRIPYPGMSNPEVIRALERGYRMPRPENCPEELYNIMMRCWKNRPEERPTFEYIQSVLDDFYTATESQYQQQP
Fyn, sequence (P06241 whole entry, looked up): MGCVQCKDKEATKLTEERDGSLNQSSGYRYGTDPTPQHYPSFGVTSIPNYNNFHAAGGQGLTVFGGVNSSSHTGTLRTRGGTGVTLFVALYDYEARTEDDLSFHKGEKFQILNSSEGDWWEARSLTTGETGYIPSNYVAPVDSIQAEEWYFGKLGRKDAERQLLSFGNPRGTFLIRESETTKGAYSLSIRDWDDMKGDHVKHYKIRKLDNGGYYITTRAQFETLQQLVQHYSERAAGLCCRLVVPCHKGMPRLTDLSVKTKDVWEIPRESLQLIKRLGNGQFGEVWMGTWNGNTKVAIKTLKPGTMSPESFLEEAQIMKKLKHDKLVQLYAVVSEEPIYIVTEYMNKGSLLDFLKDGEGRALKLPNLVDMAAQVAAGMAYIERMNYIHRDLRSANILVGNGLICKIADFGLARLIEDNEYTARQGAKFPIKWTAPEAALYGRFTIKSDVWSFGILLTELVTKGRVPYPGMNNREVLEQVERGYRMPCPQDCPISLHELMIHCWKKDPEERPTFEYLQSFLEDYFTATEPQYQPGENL

| Sequence | phosphorylation enrichment (Jak2) | phosphorylation enrichment (Fyn) | phosphorylation enrichment (c-Src) | phosphorylation enrichment (MERTK) | phosphorylation enrichment (Fes) | phosphorylation enrichment (EPHB1) | phosphorylation enrichment (Fer (mouse)) | phosphorylation enrichment (FGFR1) | phosphorylation enrichment (FGFR3) | phosphorylation enrichment (c-Abl (mouse)) | phosphorylation enrichment (AncSZ) | phosphorylation enrichment (Hck) | phosphorylation enrichment (EPHB2) | SH2 binding enrichment (Grb2 SH2) | SH2 binding enrichment (SHP2-C SH2) | SH2 binding enrichment (c-Src SH2) |
| --- | --- | --- | --- | --- | --- | --- | --- | --- | --- | --- | --- | --- | --- | --- | --- | --- |
| ELQDDYEDTME [SLC4A1_Y8_M11T] | 1.47 | 0.77 | 0.603 | 0.526 | 1.39 | 0.942 | 0.805 | 0.649 | 0.972 | 1 | 1.47 | 0.649 | 0.836 | 0.802 | 0.516 | 0.582 |
| VLICAYLLHRG [PTEN_Y138_M134L] | 0.929 | 0.515 | 0.516 | 0.412 | 1.33 | 0.62 | 0.856 | 0.44 | 0.809 | 0.833 | 1.06 | 0.608 | 0.661 | 1.11 | 1.31 | 1.09 |
| SVMAEYGLFRA [VSX2_Y219_G223R_YF] | 0.505 | 6.8 | 6.04 | 0.51 | 0.661 | 0.481 | 0.513 | 0.514 | 0.538 | 0.589 | 0.77 | 5.72 | 0.513 | 0.773 | 0.627 | 0.444 |
| LDLSYYPTSSS [EMD_Y182] | 5.02 | 0.762 | 0.72 | 0.955 | 1.81 | 1.21 | 0.835 | 3.94 | 3.28 | 1.41 | 2.17 | 0.947 | 1.18 | 0.853 | 0.66 | 1.24 |
| EFISEFCGEII [EZH2_Y641_Y641F] | 1.44 | 0.507 | 0.618 | 0.638 | 1.42 | 0.566 | 0.591 | 0.574 | 0.885 | 1.22 | 1.52 | 0.518 | 0.719 | 1.24 | 0.895 | 0.743 |
| EQDRAYLEGTC [HLA-C_Y183_L180D] | 0.978 | 0.511 | 0.519 | 0.454 | 1.14 | 0.549 | 0.499 | 0.521 | 0.663 | 0.84 | 1.1 | 0.507 | 0.574 | 0.939 | 0.868 | 0.771 |
| LSQDVYEEDSF [RET_Y900_R897Q_YF] | 2.56 | 0.882 | 0.852 | 1.26 | 2.43 | 1.19 | 0.978 | 0.991 | 1.44 | 1.58 | 2.12 | 0.945 | 0.962 | 0.83 | 0.687 | 0.671 |
| VIKSSYQVAKA [CPT1B_Y534_E531K] | 0.406 | 0.34 | 0.458 | 0.371 | 0.749 | 0.364 | 0.326 | 0.391 | 0.428 | 0.489 | 0.588 | 0.391 | 0.414 | 0.783 | 0.503 | 0.41 |
| HLEKKYVHRDS [CSF1R_Y708_R710H] | 0.358 | 0.585 | 0.34 | 0.438 | 0.612 | 0.471 | 0.585 | 0.42 | 0.678 | 0.276 | 0.615 | 0.399 | 0.314 | 1.26 | 1.17 | 0.659 |
| FVFSFYHAFSG [ACTN4_Y265_S262F_YF] | 1.25 | 0.505 | 0.714 | 1.6 | 1.1 | 0.808 | 0.455 | 0.492 | 0.693 | 0.994 | 0.963 | 0.525 | 0.812 | 1.55 | 1.31 | 1.04 |
| FKDGQYWIRGQ [ACSF3_Y466_R471Q] | 0.507 | 0.477 | 0.426 | 0.385 | 0.876 | 0.522 | 0.32 | 0.598 | 0.663 | 0.433 | 0.831 | 0.915 | 0.598 | 0.856 | 0.688 | 0.592 |
| SIRYNYLLDVL [FGFR4_Y237] | 0.674 | 0.495 | 0.443 | 0.509 | 0.745 | 0.394 | 0.47 | 0.479 | 0.636 | 0.821 | 0.943 | 0.603 | 0.524 | 0.789 | 0.747 | 1.7 |
| VHSGTYQVTVC [MYBPC3_Y1043_R1048C] | 1.01 | 0.555 | 0.684 | 0.575 | 1.23 | 0.749 | 0.516 | 0.51 | 0.93 | 0.883 | 1.03 | 0.588 | 0.655 | 0.694 | 0.599 | 0.517 |
| RALRHYFKLNI [ETV6_Y401_YF] | 0.798 | 0.373 | 0.394 | 0.4 | 0.874 | 0.342 | 0.369 | 0.485 | 0.55 | 0.594 | 0.725 | 0.377 | 0.358 | 2.81 | 2.6 | 1.66 |
| RQNQEYEILMD [KRT39_Y379_L383M] | 1.66 | 0.815 | 0.861 | 0.503 | 1.45 | 1.79 | 0.705 | 0.698 | 0.847 | 0.994 | 1.53 | 0.695 | 1.58 | 0.843 | 0.556 | 0.835 |
| ARSHIYTLASC [MEFV_Y741_F743L] | 0.802 | 2.13 | 2.07 | 1.17 | 1.13 | 0.598 | 0.657 | 0.541 | 0.68 | 0.803 | 1.05 | 0.95 | 0.58 | 0.965 | 0.693 | 4.4 |
